B3: B42-Tvl-1 fusion (Tvl-1 a.a. 81-269 fused to the activation domain B42) (other, not shown: large carriers)
chain: VSALPATLDSLSIHQLAAQGELSQLKDHLRKGACPACTCLSGNNLINKPDERGFTPLIWASAFGEIETVRFLLDWGADPHILAKERESALSLASMGGYTDIVRLLLDRDVDINIYDWNGGTPLLYAVRGNHVKCVEALLARGADLTTEADSGYTPMDLAVALGYRKVQQVMESHILRLFQSTLGPVDPE
notes: Yeast two-hybrid prey; also called acid blob-Tvl-1

Tests used:
LexA-Raf-1 = biological target: T1, LexA-Raf-1 (human, UniProt P0A7C2 1-202; P04049 1-648, limits assumed); assay: yeast two-hybrid (data not shown)
T1 construct: Yeast two-hybrid bait; also called LexA fusion of Raf-1 (#1)

[1] = biological target: B3; assay: yeast interaction mating, B42 Tvl-1 against LexA fusion (data not shown)
LexA-ftz = biological target: T2, LexA-ftz (UniProt P02835 1-410, limits assumed); assay: as above
T2 construct: not shown: LexA, fusion partner
T2 sequence (looked up): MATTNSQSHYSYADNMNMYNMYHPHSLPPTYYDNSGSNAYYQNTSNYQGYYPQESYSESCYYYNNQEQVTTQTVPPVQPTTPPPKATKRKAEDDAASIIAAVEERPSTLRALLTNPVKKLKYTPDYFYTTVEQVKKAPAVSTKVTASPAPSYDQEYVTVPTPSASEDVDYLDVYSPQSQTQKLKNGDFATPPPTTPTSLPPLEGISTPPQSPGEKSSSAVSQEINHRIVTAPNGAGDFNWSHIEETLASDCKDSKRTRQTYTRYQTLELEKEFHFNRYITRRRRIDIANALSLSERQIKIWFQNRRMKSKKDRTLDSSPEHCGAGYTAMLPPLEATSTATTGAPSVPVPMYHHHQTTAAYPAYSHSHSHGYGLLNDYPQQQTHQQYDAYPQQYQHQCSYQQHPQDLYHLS

LexA-SSN6 = biological target: T3, LexA-SSN6 (UniProt P14922 1-966, limits assumed); assay: as above
T3 construct: not shown: LexA, fusion partner
T3 sequence (P14922 whole entry, the tested form may be a part): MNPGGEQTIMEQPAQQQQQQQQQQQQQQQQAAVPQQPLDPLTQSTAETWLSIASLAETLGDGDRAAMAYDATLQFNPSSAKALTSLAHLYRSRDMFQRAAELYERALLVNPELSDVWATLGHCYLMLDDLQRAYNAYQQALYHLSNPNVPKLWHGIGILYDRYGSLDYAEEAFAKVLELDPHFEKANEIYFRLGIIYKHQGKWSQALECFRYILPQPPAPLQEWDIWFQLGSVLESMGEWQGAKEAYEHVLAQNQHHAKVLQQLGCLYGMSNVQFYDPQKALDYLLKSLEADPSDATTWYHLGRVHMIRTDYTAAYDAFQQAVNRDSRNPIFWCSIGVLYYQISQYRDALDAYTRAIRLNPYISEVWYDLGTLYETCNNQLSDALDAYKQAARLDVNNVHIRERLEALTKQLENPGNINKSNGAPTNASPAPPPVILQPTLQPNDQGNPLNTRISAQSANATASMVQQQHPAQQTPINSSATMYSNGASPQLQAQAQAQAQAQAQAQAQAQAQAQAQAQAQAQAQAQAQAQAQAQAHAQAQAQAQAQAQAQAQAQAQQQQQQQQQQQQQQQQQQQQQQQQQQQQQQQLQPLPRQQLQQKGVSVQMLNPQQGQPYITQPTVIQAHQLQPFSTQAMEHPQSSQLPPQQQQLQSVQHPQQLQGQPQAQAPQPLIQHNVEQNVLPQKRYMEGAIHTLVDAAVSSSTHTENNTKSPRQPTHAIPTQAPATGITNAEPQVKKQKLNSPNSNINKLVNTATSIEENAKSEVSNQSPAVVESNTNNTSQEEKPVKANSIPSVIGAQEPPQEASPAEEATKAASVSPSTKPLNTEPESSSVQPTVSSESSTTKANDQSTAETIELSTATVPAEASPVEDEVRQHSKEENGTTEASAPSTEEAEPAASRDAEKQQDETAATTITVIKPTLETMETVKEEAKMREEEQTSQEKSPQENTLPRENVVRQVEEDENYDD

LexA-daughterless = biological target: T4, LexA-daughterless (UniProt P11420 1-710, limits assumed); assay: as above
T4 construct: not shown: LexA, fusion partner
T4 sequence (looked up): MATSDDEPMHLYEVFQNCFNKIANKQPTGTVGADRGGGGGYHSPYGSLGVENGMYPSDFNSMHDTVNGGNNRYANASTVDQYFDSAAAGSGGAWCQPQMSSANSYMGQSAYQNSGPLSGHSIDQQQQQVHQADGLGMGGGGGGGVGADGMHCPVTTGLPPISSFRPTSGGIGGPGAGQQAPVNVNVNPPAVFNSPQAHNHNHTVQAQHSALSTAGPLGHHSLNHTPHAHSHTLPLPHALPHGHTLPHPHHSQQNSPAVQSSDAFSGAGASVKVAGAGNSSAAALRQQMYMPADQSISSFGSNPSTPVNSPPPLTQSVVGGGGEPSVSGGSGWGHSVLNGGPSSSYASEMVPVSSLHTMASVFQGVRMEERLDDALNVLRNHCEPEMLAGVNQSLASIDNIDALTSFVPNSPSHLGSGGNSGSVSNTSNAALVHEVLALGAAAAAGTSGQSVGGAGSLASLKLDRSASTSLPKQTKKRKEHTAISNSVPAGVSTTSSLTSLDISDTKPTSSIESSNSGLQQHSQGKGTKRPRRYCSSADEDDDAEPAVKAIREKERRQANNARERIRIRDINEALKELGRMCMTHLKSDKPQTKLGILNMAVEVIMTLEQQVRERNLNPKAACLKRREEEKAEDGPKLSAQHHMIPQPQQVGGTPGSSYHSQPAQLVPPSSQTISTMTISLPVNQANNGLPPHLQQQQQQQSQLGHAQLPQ

LexA-DMcdc2 = biological target: T5, LexA-DMcdc2 (UniProt P23572 1-297); assay: as above
T5 construct: not shown: LexA, fusion partner
T5 sequence (P23572 whole entry, the tested form may be a part): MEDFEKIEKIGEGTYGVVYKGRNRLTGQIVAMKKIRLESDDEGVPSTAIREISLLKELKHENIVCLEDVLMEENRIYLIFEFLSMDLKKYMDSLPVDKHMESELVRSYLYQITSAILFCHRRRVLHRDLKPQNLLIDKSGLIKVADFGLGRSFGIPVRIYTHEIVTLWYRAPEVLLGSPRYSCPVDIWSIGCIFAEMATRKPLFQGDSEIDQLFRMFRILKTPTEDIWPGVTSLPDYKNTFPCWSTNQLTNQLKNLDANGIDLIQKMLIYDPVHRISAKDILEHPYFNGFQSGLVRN

LexA-CLN3 = biological target: T6, LexA-CLN3 (UniProt P13365 1-580, limits assumed); assay: as above
T6 construct: not shown: LexA, fusion partner
T6 sequence (looked up): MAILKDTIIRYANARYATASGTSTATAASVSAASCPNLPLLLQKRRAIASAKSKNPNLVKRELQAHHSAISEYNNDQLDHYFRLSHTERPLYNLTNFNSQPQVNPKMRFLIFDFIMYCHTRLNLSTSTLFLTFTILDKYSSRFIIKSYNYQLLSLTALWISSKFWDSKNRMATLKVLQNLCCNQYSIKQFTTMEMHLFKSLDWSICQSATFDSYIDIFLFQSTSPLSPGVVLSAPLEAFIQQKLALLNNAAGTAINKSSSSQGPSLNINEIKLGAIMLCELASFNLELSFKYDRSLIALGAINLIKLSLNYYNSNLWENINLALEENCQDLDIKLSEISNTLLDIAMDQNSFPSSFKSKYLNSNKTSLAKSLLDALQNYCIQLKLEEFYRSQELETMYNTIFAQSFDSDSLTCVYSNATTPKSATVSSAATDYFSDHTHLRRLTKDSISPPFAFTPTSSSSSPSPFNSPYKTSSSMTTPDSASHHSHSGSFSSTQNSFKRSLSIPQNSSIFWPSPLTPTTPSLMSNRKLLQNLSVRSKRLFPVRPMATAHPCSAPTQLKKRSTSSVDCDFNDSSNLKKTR

LexA-hairy = biological target: T7, LexA-hairy (UniProt P14003 1-337, limits assumed); assay: as above
T7 construct: not shown: LexA, fusion partner
T7 sequence (looked up): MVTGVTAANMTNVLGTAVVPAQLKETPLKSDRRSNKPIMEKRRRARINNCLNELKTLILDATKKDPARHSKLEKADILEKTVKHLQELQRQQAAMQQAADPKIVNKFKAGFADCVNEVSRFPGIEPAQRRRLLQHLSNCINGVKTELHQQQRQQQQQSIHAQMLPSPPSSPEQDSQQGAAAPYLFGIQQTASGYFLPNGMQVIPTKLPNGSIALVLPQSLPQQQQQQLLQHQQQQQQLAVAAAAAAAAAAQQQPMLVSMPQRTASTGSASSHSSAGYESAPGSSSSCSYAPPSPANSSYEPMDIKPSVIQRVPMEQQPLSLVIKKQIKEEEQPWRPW

B1: Tvl-1 N-terminal portion (a.a. 1-96) (other)
chain: MEPTQVAENLVPNQQPPVPDLEDPEDTRDESPENSDTVVLSLFPCTPDAVNPEADASASSLQGSFLKHSTTLTNRQRGNEVSALPATLDSLSIHQL
- binding result (LexA-Raf-1): no binding

B2: LexA-bicoid (other, UniProt P09081 2-160, looked up)
chain: AQPPPDQNFYHHPLPHTHTHPHPHSHPHPHSHPHPHHQHPQLQLPPQFRNPFDLLFDERTGAINYNYIRPYLPNQMPKPDVFPSEELPDSLVMRRPRRTRTTFTSSQIAELEQHFLQGRYLTAPRLADLSAKLALGTAQVKIWFKNRRRRHKIQSDQHK
notes: not shown: LexA, fusion partner
- binding result [1]: no binding

Binder: B3
- binding result (LexA-ftz): no binding
- binding result (LexA-SSN6): no binding
- binding result (LexA-daughterless): no binding
- binding result (LexA-DMcdc2): no binding
- binding result (LexA-CLN3): no binding
- binding result (LexA-hairy): no binding
